Measured values reported in patent US20210300992A1 (Stanford University, published 2021).
Where a chain is given by its changes, count along the chain named. Numbers in names are those of the source.

B1: wild-type human gp130 CBM domain displayed on the surface of yeast (receptor)
chain: LPPEKPKNLSCIVNEGKKMRCEWDRGRETHLETNFTLKSEWATHKFADCKAKRDTPTSCTVDYSTVYFVNIEVWVEAENALGKVTSDHINFDPVYKVKPNPPHNLSVINSEELSSILKLTWTNPSIKSVIILKYNIQYRTKDASTWSQIPPEDTASTRSSFTVQDLKPFTEYVFRIRCMKEDGKGYWSDWSEEASGITYED
notes: also called gp130 wild-type (WT); wild-type gp130
B2: ELDSM (receptor)
yeast-displayed receptor fragment: B1 chain with K45E, F46L, Y95D, N100S, I130M
notes: 5 mutations, all marked
B3: ELRDM (receptor)
yeast-displayed receptor fragment: B1 chain with K45E, F46L, K83R, Y95D, I130M
notes: 5 mutations, all marked
B4: EDE (receptor)
yeast-displayed receptor fragment: B1 chain with K45E, Y95D, K184E
notes: 3 mutations, all marked
B5: 8M (receptor)
yeast-displayed receptor fragment: B1 chain with E4K, K5R, N14D, K45E, F46L, K83R, Y95D, N100S
notes: 8 mutations, all marked; also called 8M (Rnd 1); E4K-K5R-N14D-K45E-F46L-K83R-Y95D-N100S
B6: wild-type human LIFR displayed on the surface of yeast (receptor)
chain: QKKGAPHDLKCVTNNLQVWNCSWKAPSGTGRGTDYEVCIENRSRSCYQLEKTSIKIPALSHGDYEITINSLHDFGSSTSKFTLNEQNVSLIPDTPEILNLSADFSTSTLYLKWNDRGSVFPHRSNVIWEIKVLRKESMELVKLVTHNTTLNGKDTLHHWSWASDMPLECAIHFVEIRCYIDNLHFSGLEEWSDWSPVKNISWIPDSQTKVFPQDKVILVGSDITFCCVSQEKVLSALIGHTNCPLIHLDGENVAIKIRNISVSASSGTNVVFTTEDNIFGTVIFAGYPPDTPQQLNCETHDLKEIICSWNPGRVTALVGPRATSYTLVESFSGKYVRLKRAEAPTNESYQLLFQMLPNQEIYNFTLNAHNPLGRSQSTILVNITEKVYPHTPTSFKVKDINSTAVKLSWHLPGNFAKINFLCEIEIKKSNSVQEQRNVTIKGVENSSYLVALDKLNPYTLYTFRIRCSTETFWKWSKWSNKKQHLTTEAS
notes: also called LIFR wild-type (WT); wild-type LIFR
B7: LIFR CBMI-Ig-like-CBMII wild-type Fc fusion homodimer (Fc fusion)
chain: B6 chain
notes: Homodimer through the Fc; The engineered counterparts use a 3x GS linker and a human IgG1 Fc; also called LIFR-WT-Fc; LIFR WT Fc; not shown: linker and Fc domain
B8: VPSID (receptor)
yeast-displayed receptor fragment: B6 chain with I217V, L218P, N242S, T273I, N277D
notes: 5 mutations, all marked
B9: PVAID (receptor)
yeast-displayed receptor fragment: B6 chain with L218P, I257V, V262A, T273I, N277D
notes: 5 mutations, all marked
B10: VPDAID (receptor)
yeast-displayed receptor fragment: B6 chain with I217V, L218P, N242D, V262A, T273I, N277D
notes: 6 mutations, all marked
B11: LIFR CBMI-Ig-like-CBMII (VPRVVAID)-gp130 CBM (ELDME) heterodimeric Fc fusion (Fc fusion)
chain 1: QKKGAPHDLKCVTNNLQVWNCSWKAPSGTGRGTDYEVCIENRSRSCYQLEKTSIKIPALSHGDYEITINSLHDFGSSTSKFTLNEQNVSLIPDTPEILNLSADFSTSTLYLKWNDRGSVFPHRSNVIWEIKVLRKESMELVKLVTHNTTLNGKDTLHHWSWASDMPLECAIHFVEIRCYIDNLHFSGLEEWSDWSPVKNISWIPDSQTKVFPQDKVVPVGSDITFCCVSQEKVLSALIGRTDCPLIHLDGENVAIKVRNVSASASSGTNVVFITEDDIFGTVIFAGYPPDTPQQLNCETHDLKEIICSWNPGRVTALVGPRATSYTLVESFSGKYVRLKRAEAPTNESYQLLFQMLPNQEIYNFTLNAHNPLGRSQSTILVNITEKVYPHTPTSFKVKDINSTAVKLSWHLPGNFAKINFLCEIEIKKSNSVQEQRNVTIKGVENSSYLVALDKLNPYTLYTFRIRCSTETFWKWSKWSNKKQHLTTEASGSGSGSDKTHTCPPCPAPELLGGPSVFLFPPKPKDTLMISRTPEVTCVVVDVSHEDPQVKFNWYVDGVQVHNAKTKPREQQYNSTYRVVSVLTVLHQNWLDGKEYKCKVSNKALPAPIEKTISKAKGQPREPQVYTLPPSREEMTKNQVSLWCLVKGFYPSDIAVEWESNGQPENNYKTTPPVLDSDGSFFLYSKLTVDKSRWQQGNVFSCSVMHEALHNHYTQKSLSLSPGK
chain 2: LPPEKPKNLSCIVNEGKKMRCEWDRGRETHLETNFTLKSEWATHELADCKAKRDTPTSCTVDYSTVYFVNIEVWVEAENALGKVTSDHINFDPVDKVKPNPPHNLSVINSEELSSILKLTWTNPSIKSVMILKYNIQYRTKDASTWSQIPPEDTASTRSSFTVQDLKPFTEYVFRIRCMKEDGEGYWSDWSEEASGITYEDGSGSGSDKTHTCPPCPAPELLGGPSVFLFPPKPKDTLMISRTPEVTCVVVDVSHEDPQVKFNWYVDGVQVHNAKTKPREQQYNSTYRVVSVLTVLHQNWLDGKEYKCKVSNKALPAPIEKTISKAKGQPREPQVYTLPPSREEMTKNQVSLSCAVKGFYPSDIAVEWESNGQPENNYKTTPPVLDSDGSFFLVSKLTVDKSRWQQGNVFSCSVMHEALHNHYTQKSLSLSPGK
notes: also called LIFR-gp130 heterodimeric Fc; LIFR-gp130 Heterodimeric Fc (Eng.)
B12: human leukemia inhibitory factor (LIF), soluble (ligand)
chain: not shown
notes: also called human LIF; soluble human LIF

Legend:
[1] = target: B12; assay: yeast surface display, flow cytometry; Score column of the table of sorted gp130 CBM variants (the filing gives 100 pM and 1 nM human LIF for the gp130 binding scores)
[2] = target: B12; assay: yeast surface display, flow cytometry; soluble human LIF titrated (0.01 to 1000 nM), detected with a fluorescent antibody
Protocol: (§1) Binding to human LIF was measured via fluorescent antibody detection using flow cytometry.
Results for gp130 wild-type (WT) (circles), the “8M” variant (E4K-K5R-N14D-K45E-F46L-K83R-Y95D-N100S) (squares), and the ELDME variant (mutations in FIG. 4, panel A) (triangles) are shown.

[3] = target: B12; assay: yeast surface display, flow cytometry; soluble human LIF titrated (0.001 to 100 nM), detected with a fluorescent antibody
Protocol: as §1
Results for LIFR wild-type (WT) (circles), the “PDD” variant (L218P-N42D-N277D) (squares), and the […] variant (mutations in FIG. 4, panel A) (triangles) are shown.

[4] = target: B12; assay: yeast surface display, flow cytometry; score from summed fluorescence at 10 pM and 100 pM human LIF, normalized to wild-type and to expression
[5] = target: B12; assay: KinExA with soluble human LIF; inhibitor titrated
Protocol: (§2) Binding of the purified LIF inhibitors to soluble LIF was tested using KinExA. Shown in FIG. 10 are binding results for: (1) a homodimer having a WT LIFR CBMI-Ig-like-CBMII Fc fusion as each monomer; (2) a homodimer having LIFR […] Fc as each monomer;

[6] = target: B1; assay: yeast-displayed receptor, no LIF added, anti-Fc detection by flow cytometry
[7] = target: B6; assay: as above
[8] = target: B7; assay: KinExA with soluble human LIF; KD calculated by the KinExA software
Protocol: as §2

Score (binding score) [1]	Score (normalized binding score) [4]	Binder	further results
1.03		B1	
21.9		B2	
22.1		B3	
23		B4	
16		B5	EC50 (read off the curve) [2]: ~10 nM
	1.32	B6	EC50 (read off the curve) [3]: ~1 nM
		B7	EC50 (read off the curve) [5]: ~1000 pM
	13.2	B8	
	15.6	B9	
	14.4	B10	
		B11	binding result [6]: no binding; binding result [7]: no binding
		B12	Kd [8]: 1.09 nM
